In article PMC8943206 (2022):

Biological target: T1, cGAS-His (human, UniProt Q8N884 1-522)
T1 chain: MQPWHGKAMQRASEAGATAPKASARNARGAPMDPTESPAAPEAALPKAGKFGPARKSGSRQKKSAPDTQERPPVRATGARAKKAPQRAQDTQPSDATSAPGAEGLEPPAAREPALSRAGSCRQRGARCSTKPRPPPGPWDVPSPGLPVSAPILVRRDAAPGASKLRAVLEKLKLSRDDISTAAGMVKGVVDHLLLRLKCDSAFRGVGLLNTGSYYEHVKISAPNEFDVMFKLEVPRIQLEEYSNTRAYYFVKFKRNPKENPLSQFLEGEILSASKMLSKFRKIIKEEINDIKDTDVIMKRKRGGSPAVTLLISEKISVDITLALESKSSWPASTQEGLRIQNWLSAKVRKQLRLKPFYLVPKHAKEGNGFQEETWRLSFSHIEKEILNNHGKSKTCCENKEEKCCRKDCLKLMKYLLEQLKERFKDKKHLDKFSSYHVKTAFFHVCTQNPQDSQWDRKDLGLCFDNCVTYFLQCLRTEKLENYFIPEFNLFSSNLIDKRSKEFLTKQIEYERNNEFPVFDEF
Test: SPR

Kd: 470 nM
B1: GST-PCBP2 (natural protein)
chain: MDTGVIEGGLNVTLTIRLLMHGKEVGSIIGKKGESVKKMREESGARINISEGNCPERIITLAGPTNAIFKAFAMIIDKLEEDISSSMTNSTAASRPPVTLRLVVPASQCGSLIGKGGCKIKEIRESTGAQVQVAGDMLPNSTERAITIAGIPQSIIECVKQICVVMLETLSQSPPKGVTIPYRPKPSSSPVIFAGGQDRYSTGSDSASFPHTTPSMCLNPDLEGPPLEAYTIQGQYAIPQPDLTKLHQLAMQQSHFPMTHGNTGFSGIESSSPEVKGYWGLDASAQTTSHELTIPNDLIGCIIGRQGAKINEIRQMSGAQIKIANPVEGSTDRQVTITGSAASISLAQYLINVRLSSETGGMGSS
